Results from US10562947B2, “Compositions and methods for preventing or treating diseases, conditions or processes characterized by aberrant fibroblast proliferation and extracellular matrix deposition” (MOERAE MATRIX, INC., priority 2011, dated 2020).

Key:
Experiment in all cases: Kinase Profiling Assay
Type in all cases: biochemical
Conditions in all cases: 100 μM peptide
CDK5/p25(h) = CDK5/p25(h) (Homo sapiens, UniProt Q00535)
Method in brief: (§1)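 Each kinase in a 266-member human panel is assayed, in duplicate, for activity in the presence of MK2 inhibitory peptides to gauge specificity.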

CaMKIδ(h) = CaMKIδ(h) (Homo sapiens, UniProt Q8IU85)
Sequence of CaMKIδ(h) (Q8IU85 whole entry): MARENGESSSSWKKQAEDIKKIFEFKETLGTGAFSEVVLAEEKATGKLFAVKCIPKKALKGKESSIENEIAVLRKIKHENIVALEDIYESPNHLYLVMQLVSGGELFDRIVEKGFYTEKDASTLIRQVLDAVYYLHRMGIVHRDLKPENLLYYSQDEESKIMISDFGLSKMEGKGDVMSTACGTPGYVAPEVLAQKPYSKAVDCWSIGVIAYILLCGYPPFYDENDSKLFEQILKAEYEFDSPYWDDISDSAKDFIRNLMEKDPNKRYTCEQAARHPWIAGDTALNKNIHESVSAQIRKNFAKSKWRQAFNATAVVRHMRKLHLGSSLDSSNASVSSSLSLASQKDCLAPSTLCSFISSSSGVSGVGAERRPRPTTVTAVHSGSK
Method in brief: as §1

GCK(h) = biological target: T1, GCK(h) (Homo sapiens, UniProt Q12851)
T1 construct: purchased Millipore
T1 sequence (Q12851 1-820): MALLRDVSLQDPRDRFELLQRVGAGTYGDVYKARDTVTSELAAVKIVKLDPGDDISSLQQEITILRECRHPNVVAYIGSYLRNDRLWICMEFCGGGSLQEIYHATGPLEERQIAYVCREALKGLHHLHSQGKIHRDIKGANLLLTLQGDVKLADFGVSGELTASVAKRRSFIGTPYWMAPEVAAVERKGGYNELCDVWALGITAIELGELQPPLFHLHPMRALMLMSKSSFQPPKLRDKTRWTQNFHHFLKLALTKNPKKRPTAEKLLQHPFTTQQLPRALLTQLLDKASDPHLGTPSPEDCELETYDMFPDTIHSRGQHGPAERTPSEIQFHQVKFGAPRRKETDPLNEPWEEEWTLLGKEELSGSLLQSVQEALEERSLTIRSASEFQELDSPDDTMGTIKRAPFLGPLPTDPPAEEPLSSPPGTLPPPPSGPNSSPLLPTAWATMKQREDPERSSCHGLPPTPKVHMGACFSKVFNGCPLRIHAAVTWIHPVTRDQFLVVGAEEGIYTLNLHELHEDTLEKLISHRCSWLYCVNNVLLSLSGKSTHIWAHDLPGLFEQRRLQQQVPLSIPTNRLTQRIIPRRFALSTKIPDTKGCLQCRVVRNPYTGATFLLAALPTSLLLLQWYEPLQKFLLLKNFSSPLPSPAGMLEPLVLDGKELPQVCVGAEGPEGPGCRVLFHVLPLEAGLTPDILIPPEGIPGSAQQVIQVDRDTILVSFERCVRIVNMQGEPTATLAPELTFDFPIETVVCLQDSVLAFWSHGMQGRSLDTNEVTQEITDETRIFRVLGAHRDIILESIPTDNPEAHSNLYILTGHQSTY
Method in brief: as §1

Met(Y1248D)(h) = Met(Y1248D)(h) (Homo sapiens, UniProt P08581, Y1230D)
Method in brief: as §1

PKCθ(h) = biological target: T2, PKCθ(h) (Homo sapiens, UniProt Q04759)
T2 construct: purchased Millipore (IC50 Profiler Express service)
T2 sequence (Q04759 whole entry): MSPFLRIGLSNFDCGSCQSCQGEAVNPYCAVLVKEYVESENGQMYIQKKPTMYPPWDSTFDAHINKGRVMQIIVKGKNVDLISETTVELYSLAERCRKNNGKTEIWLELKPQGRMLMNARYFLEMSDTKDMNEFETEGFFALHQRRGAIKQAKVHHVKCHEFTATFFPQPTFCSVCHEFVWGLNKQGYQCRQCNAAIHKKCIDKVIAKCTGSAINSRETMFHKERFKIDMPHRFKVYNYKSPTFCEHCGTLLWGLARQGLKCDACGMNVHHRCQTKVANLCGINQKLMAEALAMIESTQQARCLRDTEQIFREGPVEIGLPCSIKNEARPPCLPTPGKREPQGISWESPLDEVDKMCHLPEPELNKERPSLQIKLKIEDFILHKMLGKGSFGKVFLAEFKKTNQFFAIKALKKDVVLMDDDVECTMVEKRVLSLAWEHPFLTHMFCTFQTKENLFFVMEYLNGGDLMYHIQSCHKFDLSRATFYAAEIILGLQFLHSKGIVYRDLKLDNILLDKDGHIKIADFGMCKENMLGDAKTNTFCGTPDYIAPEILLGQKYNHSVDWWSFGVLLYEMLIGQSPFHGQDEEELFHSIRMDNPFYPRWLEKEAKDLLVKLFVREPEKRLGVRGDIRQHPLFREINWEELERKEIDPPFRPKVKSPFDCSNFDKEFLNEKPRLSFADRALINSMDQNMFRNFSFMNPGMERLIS
Method in brief: as §1

PKG1α(h) = biological target: T3, PKG1α(h) (Homo sapiens, UniProt Q13976)
T3 construct: purchased Millipore (IC50 Profiler Express service)
T3 sequence (Q13976 1-671): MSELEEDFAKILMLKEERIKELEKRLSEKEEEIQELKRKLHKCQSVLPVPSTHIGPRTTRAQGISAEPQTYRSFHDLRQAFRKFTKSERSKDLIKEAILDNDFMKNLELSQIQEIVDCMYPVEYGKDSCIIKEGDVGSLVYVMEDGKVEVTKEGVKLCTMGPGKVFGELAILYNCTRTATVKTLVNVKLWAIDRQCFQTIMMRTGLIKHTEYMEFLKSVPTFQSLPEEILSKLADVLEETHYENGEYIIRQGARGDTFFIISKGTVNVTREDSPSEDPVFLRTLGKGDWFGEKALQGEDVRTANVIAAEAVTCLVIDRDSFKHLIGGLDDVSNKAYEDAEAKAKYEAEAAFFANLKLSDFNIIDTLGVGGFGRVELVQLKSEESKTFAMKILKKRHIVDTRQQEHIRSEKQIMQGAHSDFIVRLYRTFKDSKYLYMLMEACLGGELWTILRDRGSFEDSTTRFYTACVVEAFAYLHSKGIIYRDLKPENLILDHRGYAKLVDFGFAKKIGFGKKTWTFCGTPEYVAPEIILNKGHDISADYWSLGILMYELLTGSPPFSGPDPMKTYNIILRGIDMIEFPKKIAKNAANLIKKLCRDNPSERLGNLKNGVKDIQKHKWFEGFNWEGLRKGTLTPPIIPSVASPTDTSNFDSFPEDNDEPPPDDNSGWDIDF
Method in brief: as §1

SRPK1(h) = SRPK1(h) (Homo sapiens, UniProt Q96SB4)
Method in brief: as §1

Txk(h) = biological target: T4, Txk(h) (Homo sapiens, UniProt P42681)
T4 sequence (P42681 1-527): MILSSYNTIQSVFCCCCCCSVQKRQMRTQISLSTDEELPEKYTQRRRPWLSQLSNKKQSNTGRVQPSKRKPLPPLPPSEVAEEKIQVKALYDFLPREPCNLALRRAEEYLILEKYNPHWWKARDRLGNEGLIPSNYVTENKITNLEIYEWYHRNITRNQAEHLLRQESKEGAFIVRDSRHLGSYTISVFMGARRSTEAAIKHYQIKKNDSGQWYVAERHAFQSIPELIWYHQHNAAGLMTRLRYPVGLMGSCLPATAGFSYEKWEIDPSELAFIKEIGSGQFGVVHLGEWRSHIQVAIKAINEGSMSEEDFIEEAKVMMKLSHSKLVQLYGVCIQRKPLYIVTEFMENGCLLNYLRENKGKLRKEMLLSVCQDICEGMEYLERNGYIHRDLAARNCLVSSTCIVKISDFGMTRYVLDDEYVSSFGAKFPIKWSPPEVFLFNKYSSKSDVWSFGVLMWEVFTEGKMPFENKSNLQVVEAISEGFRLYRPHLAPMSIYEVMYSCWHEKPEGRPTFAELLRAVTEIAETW
Method in brief: as §1

BTK(R28H)(h) = BTK(R28H)(h) (Homo sapiens, UniProt Q06187, R28H)
Method in brief: as §1

HIPK1(h) = biological target: T5, HIPK1(h) (Homo sapiens, UniProt Q86Z02)
T5 construct: purchased Millipore
T5 sequence (Q86Z02 whole entry): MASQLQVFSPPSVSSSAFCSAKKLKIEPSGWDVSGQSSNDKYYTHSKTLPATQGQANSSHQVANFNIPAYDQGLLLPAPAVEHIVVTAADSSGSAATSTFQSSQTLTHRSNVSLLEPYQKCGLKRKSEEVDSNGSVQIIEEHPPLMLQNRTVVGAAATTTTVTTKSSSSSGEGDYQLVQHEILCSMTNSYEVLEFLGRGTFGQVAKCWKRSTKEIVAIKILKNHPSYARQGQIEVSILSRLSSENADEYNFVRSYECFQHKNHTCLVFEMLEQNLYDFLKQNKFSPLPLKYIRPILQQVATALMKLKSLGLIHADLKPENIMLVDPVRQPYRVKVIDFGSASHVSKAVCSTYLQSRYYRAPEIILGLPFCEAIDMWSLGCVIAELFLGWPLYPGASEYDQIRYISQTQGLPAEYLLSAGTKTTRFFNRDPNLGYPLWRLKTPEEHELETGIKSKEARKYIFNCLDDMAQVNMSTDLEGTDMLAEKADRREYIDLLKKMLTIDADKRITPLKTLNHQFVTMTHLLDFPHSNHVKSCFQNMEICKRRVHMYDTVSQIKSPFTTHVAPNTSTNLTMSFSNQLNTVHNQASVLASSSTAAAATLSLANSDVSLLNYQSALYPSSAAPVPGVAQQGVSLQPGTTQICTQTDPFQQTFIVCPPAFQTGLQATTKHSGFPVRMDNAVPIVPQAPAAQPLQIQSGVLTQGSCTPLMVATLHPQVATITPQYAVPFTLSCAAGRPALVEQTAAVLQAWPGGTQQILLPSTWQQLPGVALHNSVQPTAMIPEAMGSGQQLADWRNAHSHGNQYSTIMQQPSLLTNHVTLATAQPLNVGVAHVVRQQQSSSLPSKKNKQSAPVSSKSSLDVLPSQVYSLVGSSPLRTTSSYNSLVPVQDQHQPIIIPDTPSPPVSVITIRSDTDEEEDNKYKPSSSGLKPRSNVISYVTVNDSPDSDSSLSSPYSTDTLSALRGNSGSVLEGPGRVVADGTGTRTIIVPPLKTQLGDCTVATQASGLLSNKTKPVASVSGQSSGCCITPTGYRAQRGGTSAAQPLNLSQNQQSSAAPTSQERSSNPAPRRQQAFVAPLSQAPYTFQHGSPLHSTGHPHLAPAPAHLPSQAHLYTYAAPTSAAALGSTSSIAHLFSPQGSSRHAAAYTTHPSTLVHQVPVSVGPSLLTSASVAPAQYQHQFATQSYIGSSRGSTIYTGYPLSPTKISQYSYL
Method in brief: as §1

HIPK2(h) = biological target: T6, HIPK2(h) (Homo sapiens, UniProt Q9H2X6)
T6 construct: purchased Millipore
T6 sequence (Q9H2X6 whole entry): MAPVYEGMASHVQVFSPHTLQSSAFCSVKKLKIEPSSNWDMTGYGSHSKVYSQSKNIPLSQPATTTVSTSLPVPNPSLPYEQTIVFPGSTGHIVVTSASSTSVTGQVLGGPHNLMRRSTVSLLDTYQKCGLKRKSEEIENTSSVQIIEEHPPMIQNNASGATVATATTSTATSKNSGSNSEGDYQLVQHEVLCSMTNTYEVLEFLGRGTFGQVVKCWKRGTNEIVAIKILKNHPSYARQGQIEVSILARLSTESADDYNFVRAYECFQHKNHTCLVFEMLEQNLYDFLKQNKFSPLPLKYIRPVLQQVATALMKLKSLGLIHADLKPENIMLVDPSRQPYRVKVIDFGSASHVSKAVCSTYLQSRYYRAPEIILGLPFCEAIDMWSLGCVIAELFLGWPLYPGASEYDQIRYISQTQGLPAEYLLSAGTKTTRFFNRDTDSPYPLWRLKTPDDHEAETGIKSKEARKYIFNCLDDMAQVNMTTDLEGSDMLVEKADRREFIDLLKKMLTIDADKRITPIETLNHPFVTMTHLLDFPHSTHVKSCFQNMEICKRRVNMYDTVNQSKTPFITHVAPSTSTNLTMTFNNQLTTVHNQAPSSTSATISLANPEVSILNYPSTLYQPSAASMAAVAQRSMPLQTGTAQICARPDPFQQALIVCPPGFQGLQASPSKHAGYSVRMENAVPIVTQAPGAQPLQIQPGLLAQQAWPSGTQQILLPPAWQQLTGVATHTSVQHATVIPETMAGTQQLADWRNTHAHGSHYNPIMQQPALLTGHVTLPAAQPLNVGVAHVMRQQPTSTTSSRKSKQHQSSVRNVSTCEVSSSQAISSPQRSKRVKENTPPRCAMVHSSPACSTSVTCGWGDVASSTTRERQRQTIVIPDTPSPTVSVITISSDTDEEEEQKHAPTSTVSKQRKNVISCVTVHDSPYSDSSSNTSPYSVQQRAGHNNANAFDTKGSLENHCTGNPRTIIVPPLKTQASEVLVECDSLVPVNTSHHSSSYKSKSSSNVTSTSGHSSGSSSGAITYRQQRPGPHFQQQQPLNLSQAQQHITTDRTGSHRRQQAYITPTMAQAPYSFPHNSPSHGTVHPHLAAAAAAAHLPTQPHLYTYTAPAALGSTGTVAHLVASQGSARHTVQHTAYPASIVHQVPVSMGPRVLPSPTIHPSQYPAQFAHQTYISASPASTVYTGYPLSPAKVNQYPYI
Method in brief: as §1

JNK2α2(h) = JNK2α2(h) (Homo sapiens, UniProt P45984)
Method in brief: as §1

PDGFRα(V561D)(h) = PDGFRα(V561D)(h) (Homo sapiens, UniProt P16234, V561D)
Sequence of PDGFRα(V561D)(h) (P16234 24-1089 V561D): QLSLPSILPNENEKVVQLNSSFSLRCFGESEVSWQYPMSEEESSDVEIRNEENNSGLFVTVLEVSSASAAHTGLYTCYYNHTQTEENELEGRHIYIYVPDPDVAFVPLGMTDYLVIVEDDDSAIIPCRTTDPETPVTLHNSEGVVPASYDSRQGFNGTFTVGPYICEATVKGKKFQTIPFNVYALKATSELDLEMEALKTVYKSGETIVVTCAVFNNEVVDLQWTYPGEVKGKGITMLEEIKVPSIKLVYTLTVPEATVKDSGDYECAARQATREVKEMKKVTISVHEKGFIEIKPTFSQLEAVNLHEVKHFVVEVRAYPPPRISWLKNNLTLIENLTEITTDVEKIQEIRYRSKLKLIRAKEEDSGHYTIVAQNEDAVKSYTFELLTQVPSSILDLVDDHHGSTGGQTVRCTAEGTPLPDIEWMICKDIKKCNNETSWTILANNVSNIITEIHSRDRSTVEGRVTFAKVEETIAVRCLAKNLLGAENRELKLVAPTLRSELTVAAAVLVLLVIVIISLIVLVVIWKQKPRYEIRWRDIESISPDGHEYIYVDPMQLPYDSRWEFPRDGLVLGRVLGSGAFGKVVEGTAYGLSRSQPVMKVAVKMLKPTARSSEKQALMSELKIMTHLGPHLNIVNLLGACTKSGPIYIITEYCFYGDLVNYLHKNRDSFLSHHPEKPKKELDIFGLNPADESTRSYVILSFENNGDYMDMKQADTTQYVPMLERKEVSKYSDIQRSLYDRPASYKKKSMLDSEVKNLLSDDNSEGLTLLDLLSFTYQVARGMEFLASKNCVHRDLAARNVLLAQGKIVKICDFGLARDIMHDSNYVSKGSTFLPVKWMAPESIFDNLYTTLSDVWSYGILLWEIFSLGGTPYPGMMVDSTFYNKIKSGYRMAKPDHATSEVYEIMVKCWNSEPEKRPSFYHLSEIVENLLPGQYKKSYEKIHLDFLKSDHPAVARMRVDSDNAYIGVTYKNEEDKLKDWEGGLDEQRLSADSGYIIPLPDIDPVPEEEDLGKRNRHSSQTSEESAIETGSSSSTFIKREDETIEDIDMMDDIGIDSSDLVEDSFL
Method in brief: as §1

Sequence of CDK5/p25(h) (Q00535 whole entry): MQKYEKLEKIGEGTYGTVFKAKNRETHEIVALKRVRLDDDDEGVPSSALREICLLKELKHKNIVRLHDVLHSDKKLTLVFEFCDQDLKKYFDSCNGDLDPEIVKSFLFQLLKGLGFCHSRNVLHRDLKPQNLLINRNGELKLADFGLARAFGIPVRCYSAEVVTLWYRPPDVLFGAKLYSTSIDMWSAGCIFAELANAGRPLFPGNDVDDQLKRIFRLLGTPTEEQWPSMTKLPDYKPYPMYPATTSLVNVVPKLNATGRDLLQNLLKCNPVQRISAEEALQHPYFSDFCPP
Sequence of CDK5/p25(h) (Q15078 99-307 partner limits assumed): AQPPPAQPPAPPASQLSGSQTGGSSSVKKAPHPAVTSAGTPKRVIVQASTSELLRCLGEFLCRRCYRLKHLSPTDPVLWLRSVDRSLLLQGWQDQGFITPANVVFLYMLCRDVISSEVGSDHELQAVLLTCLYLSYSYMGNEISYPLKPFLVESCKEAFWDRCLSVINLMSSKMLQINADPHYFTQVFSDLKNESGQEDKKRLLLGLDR

Sequence	CDK5/p25(h) % activity (CDK5/p25(h)) [%]	CaMKIδ(h) % activity (CaMKIδ(h)) [%]	GCK(h) % activity (GCK(h)) [%]	Met(Y1248D)(h) % activity (Met(Y1248D)(h)) [%]	PKCθ(h) % activity (PKCθ(h)) [%]	PKG1α(h) % activity (PKG1α(h)) [%]	SRPK1(h) % activity (SRPK1(h)) [%]	Txk(h) % activity (Txk(h)) [%]	BTK(R28H)(h) % activity (BTK(R28H)(h)) [%]	HIPK1(h) % activity (HIPK1(h)) [%]	HIPK2(h) % activity (HIPK2(h)) [%]	JNK2α2(h) % activity (JNK2α2(h)) [%]	PDGFRα(V561D)(h) % activity (PDGFRα(V561D)(h)) [%]
YARAAARQARAKALNRQLGVA (Mammalian) [MMI-0200]	97	47	99	118	101	70	93	98	–	–	–	–	–
HRRIKAWLKKIKALARQLGVAA (Mammalian) [MMI-0500]	66	0	30	218	62	25	80	10	10	47	38	81	146
KAFAKLAARLYRKALARQLGVAA [MMI-0400]	92	17	66	31	76	58	96	37	24	91	90	96	100
FAKLAARLYRKALARQLGVAA [MMI-0300]	89	10	70	–	88	64	90	48	74	74	73	98	82
